{
  "source": "patent US20110165660A1",
  "about": "“ENGINEERED MICROORGANISMS WITH ENHANCED FERMENTATION ACTIVITY” (VERDEZYNE, INC., priority 2009, published 2011)",
  "data": [
    {"tested_on": "xylose isomerase activity", "experiment": "Heterologous xylose isomerase expression in engineered yeast (active yes/no)", "conditions": "xylose isomerase of the donor organism expressed in engineered yeast (S. cerevisiae)", "values": [
      {"molecule": "Actinoplanes missouriensis: xylose isomerase of this donor organism expressed in S. cerevisiae", "Active? (yes/no)": "No"},
      {"molecule": "Bacteroides thetaiotaomicron: xylose isomerase of this donor organism expressed in S. cerevisiae", "Active? (yes/no)": "Yes"},
      {"molecule": "Streptomyces diastaticus subsp diastaticus: xylose isomerase of this donor organism expressed in S. cerevisiae", "Active? (yes/no)": "No"},
      {"molecule": "Streptomyces rubiginosus: xylose isomerase of this donor organism expressed in S. cerevisiae", "Active? (yes/no)": "No"},
      {"molecule": "Thermus thermophilus: xylose isomerase (Type 1) of this donor organism expressed in S. cerevisiae", "Active? (yes/no)": "Yes"},
      {"molecule": "Pseudomonas syringae: xylose isomerase of this donor organism expressed in S. cerevisiae (protein) MHPRVLEVTERLIARSRDTRQRYLQLIRGAASDGPMRGKLQCANFAHGVAACGPEDKQSLRLMNAANVAIVSSYNEMLSAHQPYEHFPAQIKQALRDIGSVGQFAGGVPAMCDGVTQGEPGMELAIASREVIAMSTAIALSHNMFDAAMMLGICDKIVPGLMMGALRFGHLPTIFVPGGPMVSGISNKEKADVRQRYAEGKASREELLDSEMKSYHGPGTCTFYGTANTNQLVMEVMGMHLPGASFVNPYTPLRDALTAEAARQVTRLTMQSGSFMPIGEIVDERSLVNSIVALHATGGSTNHTLHMPAIAQAAGIQLTWQDMADLSEVVP", "Active? (yes/no)": "No"},
      {"molecule": "Bacillus subtilis: xylose isomerase of this donor organism expressed in S. cerevisiae (protein, UniProt P0CI80 1-445, looked up, expressed in S. cerevisiae) Xylose isomerase: MAQSHSSSINYFGSANKVVYEGKDSTNPLAFKYYNPQEVIGGKTLKEHLRFSIAYWHTFTADGTDVFGAATMQRPWDHYKGMDLAKMRVEAAFEMFEKLDAPFFAFHDRDIAPEGSTLKETNQNLDMIMGMIKDYMRNSGVKLLWNTANMFTNPRFVHGAATSCNADVFAYAAAQVKKGLETAKELGAENYVFWGGREGYETLLNTDLKFELDNLARFMHMAVDYAKEIGYTGQFLIEPKPKEPTTHQYDTDAATTIAFLKQYGLDNHFKLNLEANHATLAGHTFEHELRMARVHGLLGSVDANQGHPLLGWDTDEFPTDLYSTTLAMYEILQNGGLGSGGLNFDAKVRRSSFEPDDLIYAHIAGMDAFARGLKVAHKLIEDRVFEDVIQHRYRSFTEGIGLEIIEGRANFHTLEQYALNHKSIKNESGRQEKLKAILNQYILEV", "Active? (yes/no)": "No"},
      {"molecule": "Psudomonas savastanoi: xylose isomerase of this donor organism expressed in S. cerevisiae (protein, UniProt Q48J73 1-438, looked up, expressed in S. cerevisiae) Xylose isomerase: MPYFPAVDKVRYEGPDSDSPLAFRHYDADKLILGKPMREHLRMAACYWHTFVWPGADMFGVGTFKRPWQGSGDPLELAIGKAETAFEFFSKLGIDYYSFHDTDVAPEGSSLKEYRNNFAQMIDQLERHQEQTGIKLLWGTANCFSNPRFAAGAASNPDPEVFAYAATQVFSAMNATQRLKGANYVLWGGREGYETLLNTDLRQEREQLGRFMRMVVEHKHKIGFKGDLLIEPKPQEPTKHQYDYDSATVFGFLQQYGLEKEIKVNIEANHATLAGHSFHHEIATAVSLGIFGSIDANRGDPQNGWDTDQFPNSVEEMTLATYEILKAGGFTNGGYNFDSKVRRQSLDEVDLFHGHVAAMDVLALALERAAAMVQNDKLQQFKDQRYAGWQQPFGKSLLAGEFSLESLAKHAFDKDLNPQAVSGRQELLEGVVNRFIYF", "Active? (yes/no)": "No"},
      {"molecule": "Staphylococcus xylosus: xylose isomerase of this donor organism expressed in S. cerevisiae (protein, UniProt P27157 1-439, looked up) Xylose isomerase: MSYFDINKVNYEGPKSNNAFSFKYYNPEEKLGNHSMSELLRFSVAYWHTFTADLSDPFGVGVAERDWDSLDEMEKAKARVEAIFEFMEKTRIDYFCFHDVDISPEGASLKESNENLDIIVELIKEKMDQTGKKLLWNTTNNFTHERFVHGAATSSNAEVFAYAAAKVKKSLEIAKKLGSENFVFWGGREGYESLLNTNMKLELDNLATFFKMAKSYADEIGYTGQFLIEPKPKEPTTHQYDTDVATAHAFLQKYDLDKDFKFNIEANHATLAGHTFQHELRYARDNNMLGSVDANQGHPLLGWDTDESTDVYDTTLAMYEILKNGGLAPGGLNFDAKPRRTSFKQEDLILTHIAGMDTFALGLRVAYKMIEDNFFENIMDEKYKSFNEGIGKKIVEGETSLKELEDYAFNINTINNTSDHLEVIKSQINQYILNINNKD", "Active? (yes/no)": "No"},
      {"molecule": "Clostridium thermosulfurogenes: xylose isomerase of this donor organism expressed in S. cerevisiae (protein, UniProt P19148 1-439, looked up) Xylose isomerase: MNKYFENVSKIKYEGPKSNNPYSFKFYNPEEVIDGKTMEEHLRFSIAYWHTFTADGTDQFGKATMQRPWNHYTDPMDIAKARVEAAFEFFDKINAPYFCFHDRDIAPEGDTLRETNKNLDTIVAMIKDYLKTSKTKVLWGTANLFSNPRFVHGASTSCNADVFAYSAAQVKKALEITKELGGENYVFWGGREGYETLLNTDMEFELDNFARFLHMAVDYAKEIGFEGQFLIEPKPKEPTKHQYDFDVANVLAFLRKYDLDKYFKVNIEANHATLAFHDFQHELRYARINGVLGSIDANTGDMLLGWDTDQFPTDIRMTTLAMYEVIKMGGFDKGGLNFDAKVRRASFEPEDLFLGHIAGMDAFAKGFKVAYKLVKDRVFDKFIEERYASYKDGIGADIVSGKADFRSLEKYALERSQIVNKSGRQELLESILNQYLFAE", "Active? (yes/no)": "No"},
      {"molecule": "Escherichia coli: xylose isomerase of this donor organism expressed in S. cerevisiae (protein, UniProt P00944 1-440, looked up) Xylose isomerase: MQAYFDQLDRVRYEGSKSSNPLAFRHYNPDELVLGKRMEEHLRFAACYWHTFCWNGADMFGVGAFNRPWQQPGEALALAKRKADVAFEFFHKLHVPFYCFHDVDVSPEGASLKEYINNFAQMVDVLAGKQEESGVKLLWGTANCFTNPRYGAGAATNPDPEVFSWAATQVVTAMEATHKLGGENYVLWGGREGYETLLNTDLRQEREQLGRFMQMVVEHKHKIGFQGTLLIEPKPQEPTKHQYDYDAATVYGFLKQFGLEKEIKLNIEANHATLAGHSFHHEIATAIALGLFGSVDANRGDAQLGWDTDQFPNSVEENALVMYEILKAGGFTTGGLNFDAKVRRQSTDKYDLFYGHIGAMDTMALALKIAARMIEDGELDKRIAQRYSGWNSELGQQILKGQMSLADLAKYAQEHHLSPVHQSGRQEQLENLVNHYLFDK", "Active? (yes/no)": "No"},
      {"molecule": "Bacillus licheniformis: xylose isomerase of this donor organism expressed in S. cerevisiae (protein, UniProt P77832 1-448, looked up) Xylose isomerase: MFFRNIGMIEYEGADSENPYAFKYYNPDEFVGGKTMKEHLRFAVAYWHTFDADGKDPFGDGTMFRAWNRLTHPLDKAKARAEAAFEFFEKLGVPYFCFHDVDIVDEGATLRETFTYLDQMSSFLKEMMETSHVQLLWNTANMFTHPRYVHGAATSCNADVYAYAAAKVKKGLDIAKELGAENYVFWGGREGYETLLNTDMKLELENLSSFYRMAVEYAREIGFDGQFLIEPKPKEPTKHQYDFDAATTIAFLETYGLKDHFKLNLEANHATLAGHTFEHELRVAALHDMLGSIDANQGDLLLGWDTDEFPTDLYSAVLAMYEILKAGGFKTGGINFDAKVRRPSFADEDLFHAHIAGMDTYAVGLKVASRLLEDKALDQVIEERYESYTKGIGLEIKEGRTDLKKLAAYALENDHIENQSGRQERLKATVNRYLLNALREAPAGKETH", "Active? (yes/no)": "No"},
      {"molecule": "Burkholderia xenovorans: xylose isomerase of this donor organism expressed in S. cerevisiae (protein, UniProt Q13RB8 1-440, looked up) Xylose isomerase: MSYFEHIPEIRYEGPQSDNPLAYRHYDKSKKVLGKTLEEHLRIAVCYWHTFVWPGVDIFGQGTFRRPWQQAGDAMERARQKADSAFEFFSKLGTPYYTFHDTDVSPEGSSLKEYSENFLRITDYLARKQEDTGIKLLWGTANLFSHPRYAAGAATSPDPEVFAFAATQVRHALDATQRLGGDNYVLWGGREGYDTLLNTDLMRERDQLARFLHMVVDHAHKIGFKGSLLIEPKPQEPTKHQYDYDVATVHGFLLQHGLEKEIRVNIEANHATLAGHSFHHEIATAYALGIFGSVDANRGDPQNGWDTDQFPNSVEELTLAFYEILKHGGFTTGGMNFDSKVRRQSVDPEDLFYGHIGAIDNLALAVERAAVLIENDRLDQFKRQRYAGWDADFGRKILSGDYSLSTLATDALARGLNPQHASGHQELMENIVNQAIYSGR", "Active? (yes/no)": "No"},
      {"molecule": "Arabidopsis thaliana: xylose isomerase of this donor organism expressed in S. cerevisiae (protein, UniProt Q9FKK7 1-477, looked up) Xylose isomerase: MKKVEFFMLLLCFIAASSLVSADPPTCPADLGGKCSDSDDWQGDFFPEIPKIKYEGPSSKNPLAYRWYNAEEEILGKKMKDWFRFSVAFWHTFRGTGGDPFGAATKYWPWEDGTNSVSMAKRRMRANFEFLKKLGVDWWCFHDRDIAPDGTTLEESNKNLDEVIELAKELQKGSKIKPLWGTAQLFLHPRYMHGGATSSEVGVYAYAAAQVKKAMEVTHYLGGENYVFWGGREGYQTLLNTDMGRELDHLARFFEAAVAYKKKIGFKGTLLIEPKPQEPTKHQYDWDAATAANFLRKYGLIDEFKLNIECNHATLSGHTCHHELETARINGLLGNIDANTGDAQTGWDTDQFLTDVGEATMVMMSVIKNGGIAPGGFNFDAKLRRESTDVEDLFIAHISGMDTMARGLRNAVKILEEGSLSELVRKRYATWDSELGKQIEEGKADFEYLEKKAKEFGEPKVSSAKQELAEMIFQSAM", "Active? (yes/no)": "No"}
    ]}
  ]
}
